From patent US8058228B2, “Leptin peptide antagonists” (Boston Biomedical Research Institute, priority 2004, dated 2011)

Target: T1, IL-1R tl (Homo sapiens, UniProt P14778)
T1 construct: endogenous in cells; host or cells: Ishikawa cells
T1 sequence (P14778 18-569): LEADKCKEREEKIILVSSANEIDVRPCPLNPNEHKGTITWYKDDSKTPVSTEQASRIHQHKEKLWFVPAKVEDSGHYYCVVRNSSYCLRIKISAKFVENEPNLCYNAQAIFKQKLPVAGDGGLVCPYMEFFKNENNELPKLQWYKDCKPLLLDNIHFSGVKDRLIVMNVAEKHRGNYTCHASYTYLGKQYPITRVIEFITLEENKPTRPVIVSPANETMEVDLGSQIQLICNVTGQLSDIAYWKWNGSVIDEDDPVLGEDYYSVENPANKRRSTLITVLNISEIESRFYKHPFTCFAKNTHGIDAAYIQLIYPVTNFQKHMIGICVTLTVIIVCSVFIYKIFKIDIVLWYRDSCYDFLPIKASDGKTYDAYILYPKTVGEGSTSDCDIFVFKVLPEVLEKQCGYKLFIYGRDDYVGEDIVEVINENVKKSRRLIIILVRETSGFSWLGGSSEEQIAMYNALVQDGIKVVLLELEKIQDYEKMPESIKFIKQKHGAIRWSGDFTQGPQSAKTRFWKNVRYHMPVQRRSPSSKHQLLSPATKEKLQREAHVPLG
Experiment: IL-1β and IL-1R tl inhibitors: effects on LIF-R levels in Ishikawa cells (Western blot)
Type: cell-based
Procedure: Primary human endometrial cells (ESC and EEC) were cultured for 5-9 days in DMEM-F12 medium containing 5% fetal bovine serum (FBS), 5 μg/ml insulin, 1% amphopthericin B, 100 μg/ml streptomycin and 100 U/ml penicillin until they were 80% confluent. Two types of endometrial epithelial cell lines, HES (originally derived from a benign proliferative endometrium) and Ishikawa (human endometrial epithelial adenocarcinoma, ECACC 9832301, Wiltshire, England) were cultured under the same conditions described above. The cells were washed twice with 100 mM phosphate saline buffer (PBS), pH 7.2 and cultured for additional 2 days in the same medium but without FBS (basal medium). Cells were washed as described before and cultured in basal medium containing leptin (0, 3, 10 or 62 nM) or IL-1β (0.6, 3 and 10 nM). […]
Endometrial cells were washed with ice-cold PBS and lysed by homogenization on ice with lysis buffer A [[…] Tris, pH 7.4, containing 137 nM NaCl, 2 mM EDTA, 10% glycerol, 50 mM β-glycerophosphate, 1% Nonidet P-40 and a mixture of proteases and phosphatase inhibitors composed of 100 μM antipain, 0.1 mg/ml trypsin inhibitor, protease inhibitor cocktail 1:50 (Sigma), 50 nM NaF, 2 mM phenyl-methylsulfonyl fluoride, and 2 mM sodium orthovanadate]. […] Protein concentrations were determined using the Bradford protein assay (BioRad Laboratories Inc., Hercules, Calif.). […]

Row | Substance | LIF-R levels after IL-1β (IL-1β 3 and 10 nM, dose dependent) | effect on leptin-induced increase in LIF-R levels (IL-1Ra 1000 pg/ml or anti IL-1R tl antibody 20 μg/ml)
1 | IL-1β: human recombinant IL-1β (R&D Systems) | increased the levels of LIF-R | 
2 | IL-1Ra: human recombinant IL-1 receptor antagonist (R&D Systems), inhibitor of IL-1R tl |  | partially blocked
